According to patent publication US20150064134A1:

How the values were obtained:
Experiment in all cases: cell-based or functional assay
PASK(h) (human) = PASK(h) (human) (UniProt Q96RG2)
IR(h), activated (human) = IR(h), activated (human) (UniProt P06213)
BTK(R28H)(h) (human) = BTK(R28H)(h) (human) (UniProt Q06187)
Rsk2(h) (human) = Rsk2(h) (human) (UniProt P51812)
cKit(h) (human) = cKit(h) (human) (UniProt P10721)
CHK2(h) (human) = CHK2(h) (human) (UniProt O96017)
TrkB (h) (human) = TrkB (h) (human) (UniProt Q16620)
MAPKAP-K2(h) (human) = MAPKAP-K2(h) (human) (UniProt P49137)
PKBα(h) (human) = PKBα(h) (human) (UniProt P31749)
Chain of PKBα(h) (human) (P31749 whole entry): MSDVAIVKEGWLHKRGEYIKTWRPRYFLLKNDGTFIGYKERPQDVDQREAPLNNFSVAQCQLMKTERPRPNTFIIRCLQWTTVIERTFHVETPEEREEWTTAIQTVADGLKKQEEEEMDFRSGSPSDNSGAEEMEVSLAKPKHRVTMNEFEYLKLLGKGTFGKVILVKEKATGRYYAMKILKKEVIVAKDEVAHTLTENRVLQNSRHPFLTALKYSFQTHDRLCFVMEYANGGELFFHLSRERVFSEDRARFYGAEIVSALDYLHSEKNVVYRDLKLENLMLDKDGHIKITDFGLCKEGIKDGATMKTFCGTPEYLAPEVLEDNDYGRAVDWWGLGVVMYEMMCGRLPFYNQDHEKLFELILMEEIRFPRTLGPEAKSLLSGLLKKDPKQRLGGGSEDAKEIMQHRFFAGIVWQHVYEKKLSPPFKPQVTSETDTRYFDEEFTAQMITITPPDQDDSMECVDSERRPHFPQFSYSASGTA

SAPK3(h) (human) = biological target: T1, SAPK3(h) (human) (UniProt P53778)
T1 sequence (looked up): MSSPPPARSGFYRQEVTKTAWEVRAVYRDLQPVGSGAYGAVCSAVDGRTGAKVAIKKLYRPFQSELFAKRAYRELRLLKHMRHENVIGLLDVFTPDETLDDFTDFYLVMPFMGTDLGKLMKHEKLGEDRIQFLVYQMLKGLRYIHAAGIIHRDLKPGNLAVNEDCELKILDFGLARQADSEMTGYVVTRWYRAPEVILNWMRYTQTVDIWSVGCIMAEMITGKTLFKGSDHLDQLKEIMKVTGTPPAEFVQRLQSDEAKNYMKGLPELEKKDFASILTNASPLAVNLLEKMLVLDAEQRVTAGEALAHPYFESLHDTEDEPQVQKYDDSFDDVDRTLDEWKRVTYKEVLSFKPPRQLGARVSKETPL

ALK4(h) (human) = biological target: T2, ALK4(h) (human) (UniProt P36896)
T2 sequence (looked up): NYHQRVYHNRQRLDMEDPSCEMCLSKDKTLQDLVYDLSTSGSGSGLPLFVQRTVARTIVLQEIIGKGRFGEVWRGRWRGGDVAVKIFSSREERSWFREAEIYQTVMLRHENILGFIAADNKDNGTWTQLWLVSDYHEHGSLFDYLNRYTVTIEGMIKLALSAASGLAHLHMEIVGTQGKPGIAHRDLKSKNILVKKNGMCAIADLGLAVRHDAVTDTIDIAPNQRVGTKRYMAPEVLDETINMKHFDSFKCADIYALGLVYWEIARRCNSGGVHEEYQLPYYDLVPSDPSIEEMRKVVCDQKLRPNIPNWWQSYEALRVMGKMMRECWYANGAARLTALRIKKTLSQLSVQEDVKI

TBK1(h) (human) = biological target: T3, TBK1(h) (human) (UniProt Q9UHD2)
T3 sequence (looked up): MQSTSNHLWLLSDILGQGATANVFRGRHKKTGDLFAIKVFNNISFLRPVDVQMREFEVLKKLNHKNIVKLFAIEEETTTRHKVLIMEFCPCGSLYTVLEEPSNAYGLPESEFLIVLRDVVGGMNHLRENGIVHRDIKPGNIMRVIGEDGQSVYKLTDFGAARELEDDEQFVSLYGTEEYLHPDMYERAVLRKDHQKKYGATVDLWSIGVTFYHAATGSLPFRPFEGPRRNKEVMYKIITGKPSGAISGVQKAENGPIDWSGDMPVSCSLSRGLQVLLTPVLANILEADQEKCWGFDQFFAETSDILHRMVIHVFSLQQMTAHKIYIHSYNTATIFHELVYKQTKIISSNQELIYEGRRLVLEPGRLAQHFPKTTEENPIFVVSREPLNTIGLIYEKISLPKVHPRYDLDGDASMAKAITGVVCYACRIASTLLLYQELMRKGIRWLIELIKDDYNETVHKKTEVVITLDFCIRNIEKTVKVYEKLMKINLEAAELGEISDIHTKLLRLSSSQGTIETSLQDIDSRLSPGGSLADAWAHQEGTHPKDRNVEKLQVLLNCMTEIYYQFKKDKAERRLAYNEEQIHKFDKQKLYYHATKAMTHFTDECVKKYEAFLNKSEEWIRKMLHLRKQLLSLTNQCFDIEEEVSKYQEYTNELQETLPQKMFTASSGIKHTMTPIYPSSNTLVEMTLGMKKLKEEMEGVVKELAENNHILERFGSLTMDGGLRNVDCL

cKit(D816H)(h) (human) = cKit(D816H)(h) (human) (UniProt P10721)
Chain of cKit(D816H)(h) (human) (P10721 544-976 D816H): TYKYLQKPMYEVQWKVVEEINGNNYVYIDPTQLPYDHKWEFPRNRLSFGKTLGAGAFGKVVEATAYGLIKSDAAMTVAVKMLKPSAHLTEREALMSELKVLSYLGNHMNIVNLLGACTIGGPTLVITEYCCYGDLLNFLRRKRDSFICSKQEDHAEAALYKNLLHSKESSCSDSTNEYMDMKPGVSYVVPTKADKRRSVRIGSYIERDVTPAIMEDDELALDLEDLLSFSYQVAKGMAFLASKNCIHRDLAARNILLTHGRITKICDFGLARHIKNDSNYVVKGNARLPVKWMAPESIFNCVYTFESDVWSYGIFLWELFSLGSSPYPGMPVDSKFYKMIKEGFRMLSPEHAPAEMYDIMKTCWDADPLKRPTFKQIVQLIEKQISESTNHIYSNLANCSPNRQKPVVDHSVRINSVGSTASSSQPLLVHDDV

Fyn(h) (human) = Fyn(h) (human) (UniProt P06241)
SAPK4(h) (human) = biological target: T4, SAPK4(h) (human) (UniProt O15264)
T4 sequence (looked up): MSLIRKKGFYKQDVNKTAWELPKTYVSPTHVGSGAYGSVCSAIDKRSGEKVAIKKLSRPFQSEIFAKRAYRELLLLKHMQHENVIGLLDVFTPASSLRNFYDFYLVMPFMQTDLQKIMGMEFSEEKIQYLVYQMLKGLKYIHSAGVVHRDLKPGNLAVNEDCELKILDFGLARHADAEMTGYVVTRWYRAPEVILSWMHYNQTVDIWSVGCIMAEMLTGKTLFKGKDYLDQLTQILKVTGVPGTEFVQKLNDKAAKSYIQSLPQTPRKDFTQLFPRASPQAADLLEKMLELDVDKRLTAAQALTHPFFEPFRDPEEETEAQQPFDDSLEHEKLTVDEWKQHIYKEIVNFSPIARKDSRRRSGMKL

EphA3(h) (human) = biological target: T5, EphA3(h) (human) (UniProt P29320)
T5 sequence (looked up): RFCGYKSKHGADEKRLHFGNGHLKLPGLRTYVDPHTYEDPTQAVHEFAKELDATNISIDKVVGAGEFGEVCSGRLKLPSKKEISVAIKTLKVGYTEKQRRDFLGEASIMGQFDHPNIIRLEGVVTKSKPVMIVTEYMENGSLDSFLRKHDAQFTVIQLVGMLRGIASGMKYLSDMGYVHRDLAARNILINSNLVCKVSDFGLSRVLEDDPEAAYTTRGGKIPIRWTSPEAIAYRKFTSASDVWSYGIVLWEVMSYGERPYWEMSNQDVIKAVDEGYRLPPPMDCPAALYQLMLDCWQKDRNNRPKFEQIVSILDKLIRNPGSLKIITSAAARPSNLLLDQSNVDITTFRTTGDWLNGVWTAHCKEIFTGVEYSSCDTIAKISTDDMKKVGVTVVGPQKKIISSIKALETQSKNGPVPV

BRK(h) (human) = BRK(h) (human) (UniProt Q13882)
DAPK2(h) (human) = DAPK2(h) (human) (UniProt Q9UIK4)
MLCK(h) (human) = biological target: MLCK(h) (human)

Chain of cKit(h) (human) (P10721 544-976): as the sequence (P10721 544-976 D816H) above, with H273D counted along it
Chain of CHK2(h) (human) (O96017 5-543 limits assumed): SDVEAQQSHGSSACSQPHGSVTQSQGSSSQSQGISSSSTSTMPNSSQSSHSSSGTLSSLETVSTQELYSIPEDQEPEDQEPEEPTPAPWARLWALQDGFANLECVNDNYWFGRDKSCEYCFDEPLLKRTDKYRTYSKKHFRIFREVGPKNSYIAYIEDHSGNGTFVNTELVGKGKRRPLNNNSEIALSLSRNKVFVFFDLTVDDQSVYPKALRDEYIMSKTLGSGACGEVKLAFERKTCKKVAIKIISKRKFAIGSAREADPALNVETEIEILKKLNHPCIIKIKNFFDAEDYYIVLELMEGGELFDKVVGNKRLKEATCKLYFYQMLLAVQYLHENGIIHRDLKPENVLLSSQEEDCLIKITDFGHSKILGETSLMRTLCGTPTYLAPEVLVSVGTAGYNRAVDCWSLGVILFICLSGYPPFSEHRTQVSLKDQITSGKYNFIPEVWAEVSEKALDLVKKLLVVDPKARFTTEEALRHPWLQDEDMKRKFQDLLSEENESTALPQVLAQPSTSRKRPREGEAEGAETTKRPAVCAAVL
Chain of Rsk2(h) (human) (P51812 whole entry): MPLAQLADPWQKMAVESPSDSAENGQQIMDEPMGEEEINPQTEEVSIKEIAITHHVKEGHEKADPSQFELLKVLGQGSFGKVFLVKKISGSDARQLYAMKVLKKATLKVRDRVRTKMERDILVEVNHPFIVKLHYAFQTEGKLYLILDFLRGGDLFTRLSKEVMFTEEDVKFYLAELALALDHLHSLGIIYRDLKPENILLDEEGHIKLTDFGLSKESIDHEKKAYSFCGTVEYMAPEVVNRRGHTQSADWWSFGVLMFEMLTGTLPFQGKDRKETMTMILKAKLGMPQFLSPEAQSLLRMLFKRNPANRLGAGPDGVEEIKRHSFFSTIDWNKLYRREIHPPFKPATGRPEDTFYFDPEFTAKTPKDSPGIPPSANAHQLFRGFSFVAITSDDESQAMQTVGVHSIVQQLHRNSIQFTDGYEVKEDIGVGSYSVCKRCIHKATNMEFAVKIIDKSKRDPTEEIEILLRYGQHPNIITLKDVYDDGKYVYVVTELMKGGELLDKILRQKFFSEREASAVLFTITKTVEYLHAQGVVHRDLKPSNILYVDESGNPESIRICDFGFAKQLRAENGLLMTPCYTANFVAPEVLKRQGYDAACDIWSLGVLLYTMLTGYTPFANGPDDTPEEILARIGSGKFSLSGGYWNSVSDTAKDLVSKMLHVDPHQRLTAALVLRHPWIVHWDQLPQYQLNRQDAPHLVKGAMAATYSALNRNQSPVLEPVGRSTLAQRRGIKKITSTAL
Chain of IR(h), activated (human) (P06213 1005-1310 limits assumed): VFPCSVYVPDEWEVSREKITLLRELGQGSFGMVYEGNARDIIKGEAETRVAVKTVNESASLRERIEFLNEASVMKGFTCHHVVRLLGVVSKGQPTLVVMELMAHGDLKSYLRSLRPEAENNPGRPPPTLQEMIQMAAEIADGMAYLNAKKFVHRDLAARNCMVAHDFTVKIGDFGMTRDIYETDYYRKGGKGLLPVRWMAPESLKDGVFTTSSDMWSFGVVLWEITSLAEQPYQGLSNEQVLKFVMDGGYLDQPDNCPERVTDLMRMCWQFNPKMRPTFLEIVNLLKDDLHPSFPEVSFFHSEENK

% activity at 100 µM (PASK(h) (human)) [%] | % activity at 100 µM (IR(h), activated (human)) [%] | % activity at 100 µM (BTK(R28H)(h) (human)) [%] | % activity at 100 µM (Rsk2(h) (human)) [%] | % activity at 100 µM (cKit(h) (human)) [%] | % activity at 100 µM (CHK2(h) (human)) [%] | % activity at 100 µM (TrkB (h) (human)) [%] | % activity at 100 µM (MAPKAP-K2(h) (human)) [%] | % activity at 100 µM (PKBα(h) (human)) [%] | % activity at 100 µM (SAPK3(h) (human)) [%] | % activity at 100 µM (ALK4(h) (human)) [%] | % activity at 100 µM (TBK1(h) (human)) [%] | % activity at 100 µM (cKit(D816H)(h) (human)) [%] | % activity at 100 µM (Fyn(h) (human)) [%] | % activity at 100 µM (SAPK4(h) (human)) [%] | % activity at 100 µM (EphA3(h) (human)) [%] | % activity at 100 µM (BRK(h) (human)) [%] | % activity at 100 µM (DAPK2(h) (human)) [%] | % activity at 100 µM (MLCK(h) (human)) [%] | Substance
29 | 79 | 74 | 51 | 53 | 66 | 5 | 5 | 57 | 84 | 140 | 37 | 126 | 74 | 96 | 6 | 35 | 32 | 2 | MMI-0300 (peptide)
28 | 59 | 24 | 38 | 43 | 54 | 8 | 5 | 67 | 79 | 130 | 39 | 143 | 54 | 91 | 12 | 18 | 16 | 1 | MMI-0400 (peptide)
9 | 90 | 10 | 14 | 45 | 13 | 12 | 9 | 30 | 24 | 81 | 16 | 194 | 83 | 48 | 33 | 41 | 3 | 0 | MMI-0500 (peptide)
